Data: the nanobody polyreactivity screen of Harvey et al. (2022)

assay: yeast display, Sf9 membrane polyspecificity reagent, FACS + sequencing; frameworks hold sequencing errors
Summary of the method: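 Nanobodies from a synthetic yeast display library (Saccharomyces cerevisiae BJ5465), induced 36–48 hours with galactose, were stained 1 hour at 4 °C with 10% biotinylated, detergent-solubilized Sf9 membrane reagent, enriched on streptavidin microbeads, then FACS-sorted. Anti-HA (expression) and streptavidin (reagent binding) fluorescence set low and high (top ~1%) gates. Polyreactivity labels come from the gate of origin. Genes were colony-PCR amplified, MiSeq 2 × 250 sequenced and filtered by CDR length.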

Sequence	polyreactivity (PSR sort gate)
QVQLVESGGGLVQAGGSLRLSCAASGRIFSHYAMAWYRQAPGKERELVAAITSDRSTNYADSVKGRFTISRDNANNTVYLQMNSLKPDDTAVYYCAKYVHIPYYYYLFGSYDYWGQGTQVTVSS	low polyreactivity
PVQLVESGGGLGQAGGSLRLSCAASGSTFLYSAMGWYRPAPGKERELVAGISASGGSSYYADSVKGRFTISRDYAKNTVYLQMNSLKPEDTAVYYCNATRVVIRHSYDYWGQGTQVTVSS	high polyreactivity
QVQLVESGGGLVQAGGSLRLSCAASGRTIYLNAMGWYRQAPGKERELVAAISRNGGSTYYADSVKGRFTISRDNAKNTVYLQMNSLKPEDTAVYYCAAEWDDGRSWYWYYLVGFEYWGQGTQVTVSS	high polyreactivity
QVQLVESVGGLVQAGGNLRLSCAASGIIFSRYALGWYRQAPGKERELVAAITRSGGDTYYADSVKGRFTISRDHAKNTVYLQMNSLKPEDTAVYYCAADRTWYPWVATGYYWGHGTQVTVSS	low polyreactivity
QVQLVESGGGLVQAGGSLRLICAASGSIFVYNAMGWYRQAPGKERELVAAISQRGGSTYYADSVKGRFTISRDNAKNTVYLQMNSLKPEDTAVYYCAAGPGDSGDDYWGQGTQVTVSS	low polyreactivity
QVQLVESGGGLVQAGGRLRLSCAASGSIFYYNVMGWYRQAHGKQRELVAAITWSGGTTYYADSVKGRFTISRDNAKNTVYLQMNSLKPEDTAVYYCIAASPYSWGYRRGYLGQGTQVTVSS	high polyreactivity
QVQLVESGGGLVQARGSLRLSCAASGITFRVNAMGWYRPAPGKERELVAAISRGGGSTYYADSVKGRFTISRDNAKNTVYLQMNSLKPEDTAVYFCAASYGAPYGYKRYYYWGQGTQVTVSS	high polyreactivity
QVQLVESGGGLVQAGRSLRLSCAASGRTYSVYAMGWYRKAPGKETELLAGITSGGSTNYADSVKGRFTISRDNAKNTVYLQMNSLNPEDTAVYYCAAENVYAGFGFVSIGDYWGQGTQVTVST	low polyreactivity
QVQLVESRAGLVQAGGSLRLSCAASGNIFDIYAMGWYRQAPGKERELVAAISSGGSTYYADSVKGRFTISRDNAKNTVYLQLNSLKPEDTAVYYCAESRVGYYRYEYWGQGNQVTVSS	low polyreactivity
QVQLVESGGGLVQAGGSLRLSCAASGFTLIHYAMGWYRQATGKERELVAGITTSGGSTYYADSVKGRFTFSRDNAKNTVYLQMTSLKPEDTAVYYCNRLTRRWYSLRSYDYWGQGTQVTVSS	high polyreactivity
QVQHVESGGVLVQAGGSLRLSCAASGSTFARNALGWYRQAPGKETELVAAITTRGSSTYYADSVKGRFTISRDKAKNTVYLQLYSLKPEDTAVYYCAAVSRRSWYWGGYRQNGMGYWGQGTQVTVSS	high polyreactivity
QVQLVESGGGLVQAGGSLRISCAASGSTFGYNDMGWYRQAPGKERELVAAIDTGVSTNYADSVKGRFTISRDNAKNTVYLQMNSLKPEDTAVYYCAKSGSAYWHSGWSVGFDYWGQGTQVTVSS	low polyreactivity
QVHLVESGGGLVQAGGSLRLSCAAYGSIFRVYAMGWYRPAPGKERELVAAIDSGGSTYYADSVKGRFTISRDNAKNTVYLQMNSLKPEDTAVYYCNADRRPGGDYWGQGTQVTVSS	low polyreactivity
QVQLVESGGGLVQAGGSLRLSCAASGSILYVNAMGWYRQAPGKERELVAVITSGGSTNNADSVKGRFTISRDNAKNTVYLQMNSLKPEDTAVYYCAADPYSVYGGDYWGQGTQVTVSS	low polyreactivity
QVQLVESWGGLFQAGGRLRLSSAASGFTFPRYAMGWYRHSPGKERELVAAISRGGSTNYADSVKGRFTISRDNAMNTVYLQMNSLKPEVTAVYYCNVRLEYRYYRGDYWGQGTQVTVSS	high polyreactivity
QVQLVESGGRLVQAGGSLRLSCAASGRIYTPYAMGWYRQAPGTERELVAAISTIGGTTYADSVKGRFTISRDNAKNTVYLQMNSLKPEDTAVYYCNTRRTGRRSTTPGDYWGQGTQVTVSS	high polyreactivity
QVQLVESGGGLVQAGGSLRLSCAASGRTFQFYAMGWYRPAPGKERELVAAITYSGDSTYYADSVKGRFTISRDNAKNTVYLQMNSLKPEDTAVYYCAAGVWFYWYEYDYWGQGTQVTVSS	high polyreactivity
QVQLVESGGGLVQAGGSLRLSCAASGLTFDWYAMGWYRQAPGKERELVAAITSVGSTYYADSVKGRFTISRDNAKNTVYLQMNSLKPEDTAVYYCAVEGVMWSFWPYEYWGQGTQVTVSS	high polyreactivity
QVQLVESGGGLVQAGGSLRLSCAASGFTFYTNAMGWYRQAPGKERELVADITTSGGDTYYADSVKGRFTISRDNAKNTVYLQMNSLTPEDTAVYYCGEFWTYWGYGQYDYWGQCTQVTVSS	low polyreactivity
QVQLVESGGGLVQAGGSLRLSCAASGLIFYRYTMGWYRQAPGKERELVAAIDDSDTSTYYADSVKGRFTISRDNAKNTVYLQMNSLKPEDTAVYYCAAVPLAPYAVRSRLDFDYWGQGTQVTVSS	low polyreactivity

Sequence	polyreactivity (PSR sort gate)
QVQLVESGGGLVQAGGSLRLSCAASGRTFYVNTMGWYRQAHGKEKDLVARITRGGSTYYADSVKGRFTISRDNAKNTVYLQMNSLKPEDTAVYYCATDHFPVYSTHVIYEFDYWGQGTQVTVSS	low polyreactivity
QVQLVESGGGLVQAGGSIRLSCAASGSISAEKSMGRDRQAPGKERELVAAITSGGSTDYADSVKGRFTISRDNAKNNVYLQMNSLKPVDTAVSYCAASGRVGPGYWYDYWGQGTQVTVSS	low polyreactivity
QVQLVESGGGLVQAGGSLRLSCAASGGTFNRYAMGWYRQAPGKERELVAAISWSGGSTYYADSVKGRFTISRDTAKNTVYLQMNSLKPEDTAVYYCNARNWYYEGDYWGQGTQVTVSS	high polyreactivity
QVQLVESGGGLVQAGGSLRLSCAASGSTFWKYIMGWYRQAPGKERELVAAITTRGGSTYADSVKGRFTISRDNAKNTVYLQMNSLKPEDTAVYYWAATKFWYYGYDYWGQGTQVTVSS	low polyreactivity
QVQLVESGGGLVQAGGSLRLSCAASGSTSSNNAMGWYRQAPGKEREFVADISSRGGSTYYADSVKGRFTISRDNAKNTVYLQMNSLKPEDTAVYYCARTRFWLRYRLFDYWGQGTHVTVSS	low polyreactivity
QVQLVESGGGLVQAGGSLRLSCAASGSIYQNAMGWYRQAPGKERELVAAITSSGGRTYADSVKGRFTISRDNAKNTVYLQMNSLKPEDTAVYYCAKDSTADELTGFDYWGQGTQVTVSS	low polyreactivity
QVQLVESGGGLVQAGGSLRLSCAASGSLFGGYAMGWYRQAPGKERELVAAISGSGGSTYYADSVKGRFTISRDNAKNTVYLQMNSLKPEDTAVYYCAAEYYGTYSEGGESYDYWGQGTQVTVSP	low polyreactivity
QVQLVESGGGLVQAGGSLRLSCAASGSIFDTYAMGWYRQAPGKERELVAAIRQSGARTYYADSVKGRFTISRDKAKNTVYLQMNSLKPEDTAVYYCAVSYHHYQTWYNYWGQGTQVTVSS	high polyreactivity
QVQLVESGGGLVQEGGSLRLSCAACGFTFTTNAMGWYRQAPGKERELVAGITFIGGSTYYADSVKGRFTISRDNAKNTVYLQMNNLKPEDTAVYYCAAEWVLVYLQYTYEDYDYWGQGTQVTVSS	low polyreactivity
QVQLVESGGGLVQAGGSLRLSCAASGSTFTRYAMGWYRQAPGKERELVAGITGRGGSTYYADSVKGRFTISRDNAKNTVYFQMNSLKPEDTAVYYCNKRRRGVTTYDYWGQGTQVTVSS	high polyreactivity
QVQLVESGGGLVQAGGSLRLSCAPSGSTFVRYAMGWYRQAPGKESELVAAISKSGVSTYYADSVKGRFTISRDNAKNTVNLQMNSLKPEDTAVYYCAAYARGVRRYRRYDYWGPGTQVTVSS	high polyreactivity
QVQLVESGGGLVQAGGSLRLSCAASGRIVCYYDMGWSRQAHGKERELVATITFGGGSTYYADSVKGRFTISRDNAKNTVYLQMNSLKPEDTAVYYCAADSGYLGIYGDEYSSGQGTQVTVSS	low polyreactivity
QVQLVESGGGLVQAGGSLRLSCAASGSIYVGNDMGWYSQAPGKESEFVATMSWAGGSTDYADSVKGRFTISRDNAKNTVYLQMNSQKPEDTAVYYCAKTPYSRYRYGGYTYRTFDYWGQGTQVTVSS	low polyreactivity
QVQLVESGGGLVQAGGSLRLSCAASGFISSDYAMGWYRQAPGKEREFVAGISRGGGSTYYADSVKGRFTISRDHAKNTVYLQMISLKPEDTAVYYCNARTSLRKYQYYYWGQGTQVTVSS	high polyreactivity
QVQLVESGGGLVQAGGSLRLSCAASGFIFVYYAMGWYRQAPGKERELVATISSSSASTYYADSVKGRFTISRDNAKNTVYLQMNSLKPEDTAVYYCAVLVSRYRYRVLDDSWGQGTQVTVSS	high polyreactivity
QVQLVESGGGLVQAGGSLRLSCAASARTFSRSALGWARQAPGKERELVAAISWSGGSTYYADSVKGRFTISRDKAKNSVYLQMNSLNPEDTAVYYCAAYSRWLPAYDYWGQGTQVTVSS	high polyreactivity
QVQLVESGGGLVQAGGSLRLSCAASGITFGSYAMGWYRQAPGKERELVAAITSGGGTNYADSVKGRFTISRDNAKNTVYLQMNSLKPEDTAVYYCAARYYYLGTRYGYWGQGTQVTVSS	low polyreactivity
QVQLVESGGGLVQAGGSLRLSCADSGSTFTVYVMGWYRQAPGKETEFVAAITRIGGSTYYADSVKGRFTISRDYAKNTVYLQRNCLKTEDTAVYYCATYHTNSYYQLLYDYWGQGTQVTVSS	low polyreactivity
QVQLLESGGGLVQAGGSLRLTCAASGFTFDLNAMGWYRQAPGKERELVAAISYSGDDTYYADSVKGRFTISRDNAKNTVYLQMNSLKPEDTAVYYCAADATWTYYQLYDYWGQGNQVTVSS	low polyreactivity
QVQLVESGGGLVQAGGSLRLSCAASGRTFSKYAMGWYRQAPGKERELVAAITRSGSSTYYADSVKGRFTISRDNAKNTVYLQMNSLKPEDTAVYYCAADRYVRSSGSASDYGYWGQGTQVTVSS	low polyreactivity
